Experimental data: patent US20040072369A1, “Methods for assaying for urea and kits for use therein” (priority 2002, published 2004)

Tests used:
[1] = tested on: UreD-GFP fusion protein (urea-inducible ureD promoter); assay: Urea induction of UreD-GFP fusion, Western blot with anti-GFP; assay type: cell-based, P. mirabilis HI4320; settings: 0-500 mM urea tested (FIG. 1)
Description: Thus, to investigate in vivo expression of P. mirabilis urease, the gene encoding green fluorescent protein (GFP) was used to construct reporter fusions. Translational fusions of urease accessory gene ureD, which is preceded by a urea-inducible promoter, were made with gfp (modified to express S65TIV68L/S72A, a well-known variant of gfp). The constructs were confirmed by sequencing of the fusion junctions. UreD-GFP fusion protein was induced by urea in both E. coli DH5a and P. mirabilis HI4320. Thereafter, Western blotting was carried out with antiserum raised against GFP.

[2] = tested on: ureD promoter (PureD-lacZ reporter construct); assay: β-galactosidase reporter assay (PureD-lacZ) with UreR constructs; assay type: cell-based, E. coli Top10
Protocol: Cultures were grown to mid-log phase and induced with 0.2% (w/v) arabinose in the presence or absence of 100 mM urea for 90 min. All constructs were assayed in duplicate in five independent experiments.
More specifically, wild-type ureR was cloned into the NcoI/XhoI site of pBAD/MycHisA (Invitrogen) to create pCP016 (Poore et al, supra). This construct was used to create alanine mutants using overlapping PCR site-directed mutagenesis as described by Ho et al, Gene, 71:51-59 (1989); and Poore et al, supra. Full-length mutant ureR PCR products were then constructed by ligation into the NcoI/XhoI site of pBAD/MycHisA. Following PCR mutation to Ala, all of the cloned products in the pBAD vector were verified by sequencing. The constructs were then cotransformed with the reporter vector PureD-lacZ into E. coli Top10 (pCC142) (Invitrogen). The β-gal reporter construct pCC042 (tetR) carries a transcriptional fusion of the ureD promoter (pureD) and lacZ (Poore et al, supra). Unless otherwise stated, strains were cultured in Luria broth supplemented with ampicillin (100 μg/ml), kanamycin (50 μg/ml), or tetracycline (15 μg/ml) as required. Thereafter, activity was determined using a β-galactosidase reporter assay in the absence and presence of 100 mM urea.
More specifically, overnight cultures were diluted 1:10 into fresh medium supplemented with ampicillin. Mid-exponential cultures were induced with 0.2% (w/v) arabinose and either no urea or 100 mM urea for 1 h. Bacterial suspensions were placed on ice for 10 min and then permeabilized with 0.1% (w/v) SDS (50 μl) and chloroform (100 μl) at room temperature for 30 min. Aliquots (20-50 μl) were diluted to 1.0 ml in Z buffer comprising 200 μl o-nitrophenyl-β-D-galactopyranoside (4.0 mg/ml) and were incubated at room temperature. Timed reactions were stopped by addition of 1.0 M Na2CO3 (500 μl) and the optical densities at 420 nm and 550 nm were used to calculate Miller units for each assay (Platt et al, “Assays of β-galactosidase Activity”, In: Miller (ed.), Experiments in Molecular Genetics, Cold Spring Harbor Press, Cold Spring Harbor, N.Y., pages 352-355 (1972)). […] The results, which are shown in Table 1 below, are expressed as the average of at least three independent experiments.
The UreR Trp point mutants were confirmed by sequencing and were tested for the ability to induce β-galactosidase expression using the PureD-lacZ reporter assay in the presence of 100 mM urea as described above.

[3] = Trp emission spectra of purified nUreR Trp mutants titrated with urea; assay type: binding; settings: upon addition of urea (0-150 mM); excitation 280 nm; room temperature
Protocol: Protein samples (2.0 μM) in 50 mM PBS (pH 7.0), were excited at 280 nm at room temperature.
Three independent experiments were used to calculate the binding constant for this mutant. ΔTrp Emission is the difference in Trp emission intensity with and without urea. The binding constant was determined by fitting the data to the corresponding Hill parameters.
More specifically, Trp emission spectra were collected at room temperature using a Varian Cary Eclipse spectrofluorometer. Purified nUreR Trp mutants (5.0 μM) were excited at 280 nm and urea-dependent emission spectra were measured on the same sample following titration with increasing concentrations (0-150 mM) of urea.
The corresponding Hill parameters were invoked using the curve fitting functions packaged with the Microcal Origin 6.0 data analysis graphing program (Northampton, Mass.).
Trp fluorescence emission spectra from 300-450 nm were taken in the presence of increasing concentrations of urea (0, 0.05, 1, 10, 100 and 150 mM).

NC(N)=O [urea]
urea concentration giving highest induction of UreD-GFP [1]: 200 to 500 mM

B1: Y54W UreR (protein, UniProt Q02458 1-293, looked up, variant Y54W)
Urease operon transcriptional …: MEYKHILSSNQISLKTFYIENPMIAIVYGAKGEICINGQTITVTTNLTLIIPKWSQVSCDVTNFFPTKPIELHTLVLSETELQSVFSLLKPLIKSGAPITRHLPDYHLSTPEVVKTNFTLLQQCLPLEHGTPSQETLFMQQSLFFILLAVYHEGVDILNIFRFNYDEPKNQAITHLITQDPQRKWHLEDVAKTLYTTPSTLRRHLSKEGVSFCQLLLDVRMPIALNYLTFSNYSVFQISHRCGFGSNAYFCDAFKRKYGMTPSQFRTQSRQANDPNAIATMASQNDESIKKVF
fold induction in β-galactosidase activity ([2]; addition of 100 mM urea (FIG. 3)): 2.8 fold | β-galactosidase reporter activity compared to wild-type UreR ([2]; full-length UreR Trp point mutants, 100 mM urea (FIG. 3)): overall reduction in the level of activation

B2: Wild-type: wild-type P. mirabilis UreR expressed from pBAD/MycHisA (pCP016) (protein, UniProt Q02458 1-293, looked up)
Urease operon transcriptional …: MEYKHILSSNQISLKTFYIENPMIAIVYGAKGEICINGQTITVTTNLTLIIPKYSQVSCDVTNFFPTKPIELHTLVLSETELQSVFSLLKPLIKSGAPITRHLPDYHLSTPEVVKTNFTLLQQCLPLEHGTPSQETLFMQQSLFFILLAVYHEGVDILNIFRFNYDEPKNQAITHLITQDPQRKWHLEDVAKTLYTTPSTLRRHLSKEGVSFCQLLLDVRMPIALNYLTFSNYSVFQISHRCGFGSNAYFCDAFKRKYGMTPSQFRTQSRQANDPNAIATMASQNDESIKKVF
modifications: Myc-His tag from pBAD/MycHisA
β-Galactosidase Activity (Miller units), 0 mM urea ([2]; 0 mM urea, 0.2% arabinose induction, average of at least three experiments): 632 ± 203 Miller units | β-Galactosidase Activity (Miller units), 100 mM urea ([2]; 100 mM urea, 0.2% arabinose induction, average of at least three experiments): 3709 ± 1570 Miller units

B3: Y151W nUreR (protein, UniProt Q02458 1-293, looked up, variant Y151W)
Urease operon transcriptional …: MEYKHILSSNQISLKTFYIENPMIAIVYGAKGEICINGQTITVTTNLTLIIPKYSQVSCDVTNFFPTKPIELHTLVLSETELQSVFSLLKPLIKSGAPITRHLPDYHLSTPEVVKTNFTLLQQCLPLEHGTPSQETLFMQQSLFFILLAVWHEGVDILNIFRFNYDEPKNQAITHLITQDPQRKWHLEDVAKTLYTTPSTLRRHLSKEGVSFCQLLLDVRMPIALNYLTFSNYSVFQISHRCGFGSNAYFCDAFKRKYGMTPSQFRTQSRQANDPNAIATMASQNDESIKKVF
% Decrease in Trp Emission [3]: 9 ± 2%
